From the supplement of paper PMC7125110
± gives the standard error. For part of these data: Variants at the floor of the assay were thinned out.

B1: glmS ribozyme (parent)
chain: AUAAAAGCGCCAGAACUACAGAAAUGUAGUUGACGAGGAGGAGGUUUAUCGAAUUUUCGGCGGAUGCCUCCAAA

How the values were obtained:
Settings in all cases: with glucosamine-6-phosphate
glucosamine-6-phosphate [1] = variants of: B1; test: kcat; higher = faster cleavage; RNA array
Procedure, shortened: (§1)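 kcat and KM were obtained from weighted Michaelis–Menten fits across concentrations of kobs values. Those came from one- or two-exponential decay fits to per-tile medians normalised to baseline and to non-cleaving reference variants. The variants were barcoded ribozymes transcribed in situ by E. coli RNA polymerase on sequenced MiSeq chips and tracked through a hybridised Cy3 probe at 37 °C, with 40 μM to 10 mM glucosamine-6-phosphate in HEPES/KCl/Mg(OAc)2 buffer flowed in.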

glucosamine-6-phosphate [2] = variants of: B1; test: self-cleavage kobs at 40 uM GlcN6P; higher = faster cleavage; RNA array
Procedure, shortened: as §1

glucosamine-6-phosphate [3] = variants of: B1; test: self-cleavage kobs at 160 uM GlcN6P; higher = faster cleavage; RNA array
Procedure, shortened: as §1

glucosamine-6-phosphate [4] = variants of: B1; test: self-cleavage kobs at 640 uM GlcN6P; higher = faster cleavage; RNA array
Procedure, shortened: as §1

glucosamine-6-phosphate [5] = variants of: B1; test: self-cleavage kobs at 2500 uM GlcN6P; higher = faster cleavage; RNA array
Procedure, shortened: as §1

glucosamine-6-phosphate [6] = variants of: B1; test: self-cleavage kobs at 10000 uM GlcN6P; higher = faster cleavage; RNA array
Procedure, shortened: as §1

glucosamine-6-phosphate [7] = variants of: B1; test: KM; higher = weaker cofactor use; RNA array
Procedure, shortened: as §1

| Variant | kcat (glucosamine-6-phosphate [1]) | self-cleavage kobs at 40 uM GlcN6P (glucosamine-6-phosphate [2]) | self-cleavage kobs at 160 uM GlcN6P (glucosamine-6-phosphate [3]) | self-cleavage kobs at 640 uM GlcN6P (glucosamine-6-phosphate [4]) | self-cleavage kobs at 2500 uM GlcN6P (glucosamine-6-phosphate [5]) | self-cleavage kobs at 10000 uM GlcN6P (glucosamine-6-phosphate [6]) | KM (glucosamine-6-phosphate [7]) |
| --- | --- | --- | --- | --- | --- | --- | --- |
| A14U U31A | 0.0165 ± 0.0068 s⁻¹ | 0.000492 ± 4e-05 s⁻¹ | 0.00191 ± 0.00038 s⁻¹ | 0.00488 ± 0.00072 s⁻¹ | 0.00761 ± 0.0014 s⁻¹ | 0.028 ± 0.0038 s⁻¹ | – |
| A15C U55G | 0.00196 ± 0.00085 s⁻¹ | 0.000128 ± 3e-05 s⁻¹ | 0.000255 ± 4.7e-05 s⁻¹ | – | 0.00118 ± 0.0002 s⁻¹ | 0.00334 ± 0.00064 s⁻¹ | – |
| C61G G63C | < 1e-05 s⁻¹ | < 1e-05 s⁻¹ | < 1e-05 s⁻¹ | – | < 1e-05 s⁻¹ | – | 181 ± 67 µM |
| U46G U65C | 4.23e-05 ± 1.3e-06 s⁻¹ | – | – | – | – | 3.6e-05 ± 7.3e-06 s⁻¹ | 1730 ± 260 µM |
| C10A C58U | < 1e-05 s⁻¹ | – | – | < 1e-05 s⁻¹ | – | – | – |
| A33U C71U | 0.000125 ± 1.3e-05 s⁻¹ | – | – | 3.01e-05 ± 7.2e-06 s⁻¹ | 5.58e-05 ± 5.4e-06 s⁻¹ | 0.0001 ± 9.1e-06 s⁻¹ | 2840 ± 690 µM |
| A14G C70A | 0.000511 ± 0.0001 s⁻¹ | 6.67e-05 ± 5.7e-06 s⁻¹ | 0.000287 ± 4.4e-05 s⁻¹ | 0.000328 ± 4.7e-05 s⁻¹ | 0.000484 ± 8.1e-05 s⁻¹ | – | 256 ± 76 µM |
| C11A G29U | 3.97e-05 ± 4.4e-06 s⁻¹ | – | – | – | 3.72e-05 ± 1.1e-05 s⁻¹ | 3.56e-05 ± 8.9e-06 s⁻¹ | – |
| A42C U46A | < 1e-05 s⁻¹ | < 1e-05 s⁻¹ | – | < 1e-05 s⁻¹ | – | – | – |
| C16U G44A | 0.000353 ± 9.4e-05 s⁻¹ | – | – | 7.56e-05 ± 1.5e-05 s⁻¹ | 0.000392 ± 7.1e-05 s⁻¹ | 0.000277 ± 3.6e-05 s⁻¹ | – |
| G29A C70G | 6.2e-05 ± 1.1e-05 s⁻¹ | – | 5.22e-05 ± 1.7e-05 s⁻¹ | 5.96e-05 ± 1.1e-05 s⁻¹ | 7.74e-05 ± 8.4e-06 s⁻¹ | 4.28e-05 ± 8.6e-06 s⁻¹ | – |
| A14U G32C | 0.000397 ± 4e-05 s⁻¹ | – | – | 6.36e-05 ± 8.6e-06 s⁻¹ | 0.000199 ± 1.9e-05 s⁻¹ | 0.000294 ± 2.6e-05 s⁻¹ | 3050 ± 580 µM |
| G37U U54G | < 1e-05 s⁻¹ | < 1e-05 s⁻¹ | < 1e-05 s⁻¹ | < 1e-05 s⁻¹ | – | – | – |
| G37A A64G | 0.00317 ± 0.0014 s⁻¹ | 6.01e-05 ± 1.3e-05 s⁻¹ | 5.16e-05 ± 2.1e-05 s⁻¹ | 0.000337 ± 6.8e-05 s⁻¹ | 0.000977 ± 0.00019 s⁻¹ | 0.002 ± 0.00025 s⁻¹ | – |
| A15C C71U | 0.00455 ± 0.0014 s⁻¹ | 0.000165 ± 1.6e-05 s⁻¹ | 0.000358 ± 4.6e-05 s⁻¹ | 0.00111 ± 0.00013 s⁻¹ | 0.00266 ± 0.00039 s⁻¹ | 0.00453 ± 0.00056 s⁻¹ | 1580 ± 690 µM |
| A12U G13A C50G C67U | 0.000171 ± 2.5e-05 s⁻¹ | 0.000107 ± 2.3e-05 s⁻¹ | 0.000201 ± 5.7e-05 s⁻¹ | 0.000169 ± 4.2e-05 s⁻¹ | 0.000208 ± 3.6e-05 s⁻¹ | 0.000124 ± 3.4e-05 s⁻¹ | – |
